According to US20050255464A1, “Methods for the identification of peptidyl compounds interacting with extracellular target molecules” (priority 2001, published 2005):

Molecular target: fusion protein encoded by plasmid pIcoFLAGXa (amino terminal FLAG epitope, Factor Xa cleavage sequence Ile-Glu-Gly-Arg-Gly, thioredoxin with the V5 epitope at the active site, GPI linkage), displayed on COS7 cells (E. coli) [thioredoxin: P0AA25]
Assay: cell-based or functional assay

cells selected on streptavidin magnetic beads with biotin anti-FLAG antibody after incubation with Factor Xa: 0 % of cells
Substance: Factor Xa (enzyme)
